Assay results published in the RNAGym collection of RNA variant scans (doi:10.7554/elife.80360).

B1: Hairpin Ribozyme (parent)
chain: GUCCUCUUUCACGUGCGCGUGAAAGAGAGAAGUGAACCAGAGAAACACACGUUGUGGUAUAUUACCUGGUA

Variants of: B1
Assay: self-cleavage, relative activity (ratio to wild type); higher = more cleavage; co-transcriptional
Work on A11G G42U yielded a self-cleavage of 0.314. Work on A11G G56U yielded a self-cleavage of 0.105. A11G G57A showed a self-cleavage of 0.159. Work on A11G G57U yielded a self-cleavage of 0.392. In the case of A11G G68A, the self-cleavage is reported as 0.277. Work on A11G G69C yielded a self-cleavage of 0.267. A11G U14C showed a self-cleavage of 0.952. Variant A11G U20C has a self-cleavage of 0.857. In the case of A11G U20G, the self-cleavage is reported as 0.982. Variant A11G U33G has a self-cleavage of 0.131. Variant A11G U52C has a self-cleavage of 0.944. In the case of A11G U55G, the self-cleavage is reported as 0.223. For A11G U58A, the self-cleavage was 0.557. In the case of A11G U58C, the self-cleavage is reported as 0.81. A11G U60G showed a self-cleavage of 0.565. Variant A11G U63A has a self-cleavage of 0.116. For A11G U70A, the self-cleavage was 0.627. Variant A11G U70C has a self-cleavage of 0.952. In the case of A11U A22G, the self-cleavage is reported as 0.755. Work on A11U A24C yielded a self-cleavage of 0.211. A11U A26G showed a self-cleavage of 0.751. A11U A26U gave a self-cleavage of 0.775. A11U A28G gave a self-cleavage of 0.929. A11U A30U showed a self-cleavage of 0.133. Variant A11U A31C has a self-cleavage of 0.152. A11U A31G gave a self-cleavage of 0.464. A11U A35C showed a self-cleavage of 0.86. Variant A11U A35G has a self-cleavage of 0.867. In the case of A11U A39C, the self-cleavage is reported as 0.495. A11U A39U gave a self-cleavage of 0.309. For A11U A41G, the self-cleavage was 0.495. Variant A11U A43U has a self-cleavage of 0.078. Work on A11U A44G yielded a self-cleavage of 0.144. Work on A11U A44U yielded a self-cleavage of 0.22. A11U A49G showed a self-cleavage of 0.558. Work on A11U A59G yielded a self-cleavage of 0.0747. For A11U A61G, the self-cleavage was 0.176. In the case of A11U A64C, the self-cleavage is reported as 0.175. For A11U A64G, the self-cleavage was 0.588. A11U A64U gave a self-cleavage of 0.152. For A11U A71U, the self-cleavage was 0.701. In the case of A11U C16A, the self-cleavage is reported as 0.696. Variant A11U C16G has a self-cleavage of 0.653. A11U C18G gave a self-cleavage of 0.812. With A11U C18U the self-cleavage was 1.12. Work on A11U C37A yielded a self-cleavage of 0.228. For A11U C38G, the self-cleavage was 0.128. With A11U C46U the self-cleavage was 0.0973. A11U C48G gave a self-cleavage of 0.0875. For A11U C50U, the self-cleavage was 0.36. A11U C65A gave a self-cleavage of 0.719. In the case of A11U C66A, the self-cleavage is reported as 0.139. For A11U G13A, the self-cleavage was 0.672. A11U G19A showed a self-cleavage of 0.79. A11U G19C showed a self-cleavage of 0.687. A11U G21A gave a self-cleavage of 0.586. In the case of A11U G21U, the self-cleavage is reported as 0.915. Work on A11U G27C yielded a self-cleavage of 0.184. Variant A11U G29C has a self-cleavage of 0.0923. For A11U G29U, the self-cleavage was 0.0998. Variant A11U G32C has a self-cleavage of 0.144. Work on A11U G34A yielded a self-cleavage of 1.13. In the case of A11U G34C, the self-cleavage is reported as 1.43. In the case of A11U G42C, the self-cleavage is reported as 0.271. A11U G42U gave a self-cleavage of 0.171. A11U G51A showed a self-cleavage of 0.799. A11U G51U showed a self-cleavage of 0.805. Work on A11U G54U yielded a self-cleavage of 0.565. A11U G56A showed a self-cleavage of 0.176. With A11U G56U the self-cleavage was 0.131. For A11U G57C, the self-cleavage was 0.182. Work on A11U G68C yielded a self-cleavage of 0.13. In the case of A11U G68U, the self-cleavage is reported as 0.292. In the case of A11U U20A, the self-cleavage is reported as 0.874. For A11U U20C, the self-cleavage was 1.11. Variant A11U U20G has a self-cleavage of 0.907. A11U U33C showed a self-cleavage of 0.152. For A11U U33G, the self-cleavage was 0.151. With A11U U52G the self-cleavage was 0.362. Work on A11U U53A yielded a self-cleavage of 0.679. A11U U55C showed a self-cleavage of 0.118. For A11U U55G, the self-cleavage was 0.339. A11U U62C gave a self-cleavage of 0.187. A11U U63C showed a self-cleavage of 0.122. With A11U U67G the self-cleavage was 0.287. In the case of A11U U70C, the self-cleavage is reported as 0.848. Work on C12A A22C yielded a self-cleavage of 0.575. C12A A24C gave a self-cleavage of 0.914. Variant C12A A24G has a self-cleavage of 0.676. With C12A A26C the self-cleavage was 0.393. With C12A A28C the self-cleavage was 0.531. With C12A A28G the self-cleavage was 0.836. With C12A A30G the self-cleavage was 0.206. Work on C12A A30U yielded a self-cleavage of 0.172. In the case of C12A A31U, the self-cleavage is reported as 0.104. Work on C12A A36G yielded a self-cleavage of 0.956. Variant C12A A39C has a self-cleavage of 0.397. In the case of C12A A44U, the self-cleavage is reported as 0.186. With C12A A47G the self-cleavage was 0.0872. Variant C12A A47U has a self-cleavage of 0.132. In the case of C12A A49G, the self-cleavage is reported as 0.474. C12A A49U showed a self-cleavage of 0.256. Work on C12A A59C yielded a self-cleavage of 0.149. C12A A59U showed a self-cleavage of 0.176. C12A A61G showed a self-cleavage of 0.174. C12A A64C showed a self-cleavage of 0.101. C12A A64G gave a self-cleavage of 0.411. C12A A71G gave a self-cleavage of 0.848. For C12A C16A, the self-cleavage was 0.964. For C12A C18G, the self-cleavage was 0.872. C12A C18U gave a self-cleavage of 0.834. C12A C38A gave a self-cleavage of 0.18. In the case of C12A C48U, the self-cleavage is reported as 0.112. Variant C12A C50U has a self-cleavage of 0.399. Variant C12A C65U has a self-cleavage of 0.309. In the case of C12A C66A, the self-cleavage is reported as 0.259. For C12A C66G, the self-cleavage was 0.208. For C12A G13U, the self-cleavage was 0.673. With C12A G15A the self-cleavage was 0.801. For C12A G15C, the self-cleavage was 0.837. With C12A G15U the self-cleavage was 0.805. For C12A G19C, the self-cleavage was 0.944. In the case of C12A G21C, the self-cleavage is reported as 0.808. C12A G21U showed a self-cleavage of 0.752. Variant C12A G27A has a self-cleavage of 0.378. For C12A G27U, the self-cleavage was 0.249. With C12A G29A the self-cleavage was 0.162. Variant C12A G29C has a self-cleavage of 0.0897. C12A G29U gave a self-cleavage of 0.201. Work on C12A G32C yielded a self-cleavage of 0.0893. C12A G34C gave a self-cleavage of 1.17. C12A G42A gave a self-cleavage of 0.168. Variant C12A G51A has a self-cleavage of 0.898. With C12A G54A the self-cleavage was 0.485. C12A G56C showed a self-cleavage of 0.0797. C12A G56U gave a self-cleavage of 0.159. With C12A G57C the self-cleavage was 0.17. C12A G69C gave a self-cleavage of 0.275. Work on C12A G69U yielded a self-cleavage of 0.251. For C12A U20G, the self-cleavage was 0.732. Work on C12A U33A yielded a self-cleavage of 0.158. Work on C12A U52A yielded a self-cleavage of 0.763. In the case of C12A U52C, the self-cleavage is reported as 0.768. In the case of C12A U53A, the self-cleavage is reported as 0.785. C12A U53G gave a self-cleavage of 0.587. For C12A U55A, the self-cleavage was 0.288. In the case of C12A U58A, the self-cleavage is reported as 0.733. For C12A U58C, the self-cleavage was 0.686. For C12A U60A, the self-cleavage was 0.621. C12A U60C gave a self-cleavage of 0.893. C12A U60G gave a self-cleavage of 0.459. Work on C12A U62G yielded a self-cleavage of 0.143. Variant C12A U63A has a self-cleavage of 0.102. In the case of C12A U63G, the self-cleavage is reported as 0.213. C12A U70A gave a self-cleavage of 0.673. C12G A26G showed a self-cleavage of 0.75. Variant C12G A28C has a self-cleavage of 0.561. With C12G A28U the self-cleavage was 0.57. C12G A31G showed a self-cleavage of 0.455. C12G A31U gave a self-cleavage of 0.152. C12G A35C gave a self-cleavage of 0.74. Variant C12G A35U has a self-cleavage of 0.731. For C12G A36U, the self-cleavage was 0.517. For C12G A39U, the self-cleavage was 0.32. For C12G A41U, the self-cleavage was 1.25. Work on C12G A43C yielded a self-cleavage of 0.125. For C12G A43G, the self-cleavage was 0.139.
